# Laboratory results as given in PMC2704562 (Biochimica et biophysica acta, 2009).
# Positions count from the first letter of the chain named. Numbers in names are those of the source.
# B1: Methanococcus jannaschii methionine adenosyltransferase, wild type (enzyme, UniProt Q58605 1-406, looked up)
# chain: MRNIIVKKLDVEPIEERPTEIVERKGLGHPDSICDGIAESVSRALCKMYMEKFGTILHHNTDQVELVGGHAYPKFGGGVMVSPIYILLSGRATMEILDKEKNEVIKLPVGTTAVKAAKEYLKKVLRNVDVDKDVIIDCRIGQGSMDLVDVFERQKNEVPLANDTSFGVGYAPLSTTERLVLETERFLNSDELKNEIPAVGEDIKVMGLREGKKITLTIAMAVVDRYVKNIEEYKEVIEKVRKKVEDLAKKIADGYEVEIHINTADDYERESVYLTVTGTSAEMGDDGSVGRGNRVNGLITPFRPMSMEAASGKNPVNHVGKIYNILANLIANDIAKLEGVKECYVRILSQIGKPINEPKALDIEIITEDSYDIKDIEPKAKEIANKWLDNIMEVQKMIVEGKVTTF
# B2: Mj-MAT W387F (enzyme, Methanococcus jannaschii, UniProt Q58605 1-406, looked up)
# chain: B1 chain with W387F
# B3: Mj-MAT W387F-Y170W (enzyme, Methanococcus jannaschii, UniProt Q58605 1-406, looked up)
# chain: B1 chain with Y170W, W387F
# B4: Mj-MAT W387F-Y72W (enzyme, Methanococcus jannaschii, UniProt Q58605 1-406, looked up)
# chain: B1 chain with Y72W, W387F
# B5: Mj-MAT W387F-Y371W (enzyme, Methanococcus jannaschii, UniProt Q58605 1-406, looked up)
# chain: B1 chain with Y371W, W387F
# B6: Mj-MAT W387F-Y233W (enzyme, Methanococcus jannaschii, UniProt Q58605 1-406, looked up)
# chain: B1 chain with Y233W, W387F
# B7: Mj-MAT W387F-Y323W (enzyme, Methanococcus jannaschii, UniProt Q58605 1-406, looked up)
# chain: B1 chain with Y323W, W387F
# B8: Mj-MAT W387F-Y85W (enzyme, Methanococcus jannaschii, UniProt Q58605 1-406, looked up)
# chain: B1 chain with Y85W, W387F
# B9: Mj-MAT W387F-Y226W (enzyme, Methanococcus jannaschii, UniProt Q58605 1-406, looked up)
# chain: B1 chain with Y226W, W387F
# B10: Mj-MAT W387F-Y273W (enzyme, Methanococcus jannaschii, UniProt Q58605 1-406, looked up)
# chain: B1 chain with Y273W, W387F
# B11: Mj-MAT W387F-Y255W (enzyme, Methanococcus jannaschii, UniProt Q58605 1-406, looked up)
# chain: B1 chain with Y255W, W387F
# B12: Mj-MAT W387F-Y120W (enzyme, Methanococcus jannaschii, UniProt Q58605 1-406, looked up)
# chain: B1 chain with Y120W, W387F
# B13: Mj-MAT W387F-Y344W (enzyme, Methanococcus jannaschii, UniProt Q58605 1-406, looked up)
# chain: B1 chain with Y344W, W387F
# B14: Mj-MAT W387F-Y267W (enzyme, Methanococcus jannaschii, UniProt Q58605 1-406, looked up)
# chain: B1 chain with Y267W, W387F
# B15: Mj-MAT W387F-Y49W (enzyme, Methanococcus jannaschii, UniProt Q58605 1-406, looked up)
# chain: B1 chain with Y49W, W387F
# Substrate: Nc1ncnc2c1ncn2[C@@H]1O[C@H](COP(=O)(O)OP(=O)(O)OP(=O)(O)O)[C@@H](O)[C@H]1O
# Test: radiometric S-adenosylmethionine formation assay, Michaelis-Menten fit
# Type: biochemical, Methanocaldococcus jannaschii
# Conditions: 0.5 mM [methyl-14C]-L-methionine, ATP 0.05-2.5 mM, 55 °C
Protein,Km [µM],kcat [s⁻¹]
B1,190 ± 30,1.46 ± 0.05
B2,110 ± 30,1.85 ± 0.08
B3,100 ± 20,2.39 ± 0.03
B4,110 ± 30,1.62 ± 0.15

# Target: the molecule itself
# Test: AUC
# Conditions: not given
row,Protein,stoichiometry N
1,B5,2
2,B6,2
3,B7,2
4,B8,2
5,B9,2
6,B10,2
7,B11,2
8,B12,2
9,B2,2
10,B13,2
11,B3,2
12,B4,2
13,B14,2
14,B15,2

# Target: the molecule itself
# Test: SEC
# Conditions: not given
row,Protein,stoichiometry N
1,B1,2
